From US20160046944, “APTAMER TO IL-17 AND USE THEREOF” (THE UNIVERSITY OF TOKYO, published 2016)
Where a chain is given by its changes, count along the chain named.

B1: aptamer No. 52 (mixed)
mixed: GGGUAGCCGGAGGAGTCAGTAAUCGGUACCC
modifications: 2'-OMe (M), 2'-F (F), PS (S) as marked; uppercase DNA [2'-OMe: 1-4,7,8,10,13,14,21-26,28; 2'-F: 11,17,18,27; PS: 6,15]
B2: aptamer No. 53 (mixed)
mixed: B1 mixed
modifications: 2'-OMe (M), 2'-F (F), PS (S) as marked; uppercase DNA [2'-OMe: 1,2,3,4,7,8,10,13,14,21,22,23,24,25,26,28; 2'-F: 11,17,18,27; PS: 6,19]
B3: aptamer No. 54 (mixed)
RNA: B1 mixed with T16U, T20U
modifications: 2'-OMe (M), 2'-F (F), PS (S) as marked; uppercase DNA (U = deoxyuridine) [2'-OMe: 1,2,3,4,7,8,10,13,14,21,22,23,24,25,26,28; 2'-F: 11,17,18,27; PS: 6; dU: 16,20]
B4: aptamer No. 56 (mixed)
mixed: B1 mixed
modifications: 2'-OMe (M), 2'-F (F), PS (S) as marked; uppercase DNA [2'-OMe: 1,2,3,4,7,8,10,13,14,21,22,23,24,25,26,28; 2'-F: 11,17,18,27; PS: 6,15,19]
B5: aptamer No. 58 (mixed)
mixed: B1 mixed
modifications: 2'-OMe (M), 2'-F (F), PS (S) as marked; uppercase DNA [2'-OMe: 1,2,3,4,7,8,10,13,14,19,21,22,23,24,25,26,28; 2'-F: 11,17,18,27; PS: 6,12,15]
B6: aptamer No. 59 (mixed)
mixed: B1 mixed
modifications: 2'-OMe (M), 2'-F (F), PS (S) as marked; uppercase DNA [2'-OMe: 1,2,3,4,7,8,10,13,14,19,21,22,23,24,25,26,28,29,30,31; 2'-F: 11,17,18,27; PS: 6,15]
B7: aptamer No. 60 (mixed)
mixed: B1 mixed
modifications: 2'-OMe (M), 2'-F (F), PS (S) as marked; uppercase DNA [2'-OMe: 1,2,3,4,5,7,8,10,13,14,19,21,22,23,24,25,26,28,29,30,31; 2'-F: 11,17,18,27; PS: 6,15]
B8: aptamer No. 62 (mixed)
mixed: B1 mixed
modifications: 2'-OMe (M), 2'-F (F), PS (S) as marked; uppercase DNA [2'-OMe: 1,2,3,4,5,7,8,10,13,14,21,22,23,24,25,26,28,29,30,31; 2'-F: 11,17,18,27; PS: 6]
B9: aptamer No. 63 (mixed)
mixed: B1 mixed
modifications: 2'-OMe (M), 2'-F (F), PS (S) as marked; uppercase DNA [2'-OMe: 1,2,3,4,5,7,8,10,13,14,21,22,23,24,25,26,28,29,30,31; 2'-F: 11,17,18,27; PS: 6,15,19]
B10: aptamer No. 64 (mixed)
mixed: B1 mixed
modifications: 2'-OMe (M), 2'-F (F), PS (S) as marked; uppercase DNA [2'-OMe: 1,2,3,4,5,7,8,10,13,14,17,21,22,23,24,25,26,28,29,30,31; 2'-F: 11,18,27; PS: 6,15,19]
B11: aptamer No. 65 (mixed)
mixed: B1 mixed
modifications: 2'-OMe (M), 2'-F (F), PS (S) as marked; uppercase DNA [2'-OMe: 1-5,7,8,10,13,14,21-31; 2'-F: 11,17,18; PS: 6]
B12: aptamer No. 66 (mixed)
mixed: B1 mixed
modifications: 2'-OMe (M), 2'-F (F), PS (S) as marked; uppercase DNA [2'-OMe: 1-5,7,8,10,13,14,21-31; 2'-F: 11,17,18; PS: 6,15,19]
B13: aptamer No. 68 (mixed)
RNA: B1 mixed with T16U, T20U
modifications: 2'-OMe (M), 2'-F (F), PS (S) as marked; uppercase DNA [2'-OMe: 1-5,7,8,10,13,14,21-26,29-31; 2'-F: 11,16,17,18,20,27; PS: 6,15,19]
B14: aptamer No. 69 (mixed)
RNA: B1 mixed with T16U, T20U
modifications: 2'-OMe (M), 2'-F (F), PS (S) as marked; uppercase DNA [2'-OMe: 1-5,7,8,10,13,14,21-26,28-31; 2'-F: 11,16,17,18,20,27; PS: 6]
B15: aptamer No. 70 (mixed)
RNA: B1 mixed with T16U, T20U
modifications: 2'-OMe (M), 2'-F (F), PS (S) as marked; uppercase DNA [2'-OMe: 1-5,7,8,10,13,14,21-26,28-31; 2'-F: 11,16,17,18,20,27; PS: 6,15,19]
B16: aptamer No. 72 (mixed)
RNA: B1 mixed with T16U, T20U
modifications: 2'-OMe (M), 2'-F (F), PS (S) as marked; uppercase DNA [2'-OMe: 1-5,7,8,10,13,14,21-31; 2'-F: 11,16,17,18,20; PS: 6]
B17: aptamer No. 73 (mixed)
RNA: B1 mixed with T16U, T20U
modifications: 2'-OMe (M), 2'-F (F), PS (S) as marked; uppercase DNA [2'-OMe: 1-5,7,8,10,13,14,21-31; 2'-F: 11,16,17,18,20; PS: 6,15,19]
B18: aptamer No. 75 (mixed)
mixed: B1 mixed
modifications: 2'-OMe (M), 2'-F (F) as marked; uppercase DNA [2'-OMe: 1-5,7,8,10,13,14,21-26,28-31; 2'-F: 11,17,18,27]
B19: aptamer No. 76 (mixed)
RNA: B1 mixed with T16U, T20U
modifications: 2'-OMe (M), 2'-F (F) as marked; uppercase DNA [2'-OMe: 1-5,7,8,10,13,14,21-26,29-31; 2'-F: 11,16,17,18,20,27]
B20: aptamer No. 77 (mixed)
RNA: B1 mixed with T16U, T20U
modifications: 2'-OMe (M), 2'-F (F) as marked; uppercase DNA [2'-OMe: 1-5,7,8,10,13,14,21-26,29-31; 2'-F: 11,16,17,18,20,27; DNA: 28]
B21: aptamer No. 78 (mixed)
mixed: B1 mixed
modifications: 2'-OMe (M), 2'-F (F) as marked; uppercase DNA [2'-OMe: 1-5,7,8,10,13,14,21-31; 2'-F: 11,17,18; DNA: 9,16,20]
B22: aptamer No. 79 (ssRNA)
RNA: B1 mixed with T16U, T20U
modifications: 2'-OMe (M), 2'-F (F) as marked [2'-OMe: 1-5,7,8,10,13,14,21-31; 2'-F: 11,16,17,18,20]
B23: aptamer No. 80 (mixed)
RNA: B1 mixed with T16U, T20U
modifications: 2'-OMe (M), 2'-F (F), PS (S) as marked; uppercase DNA [2'-OMe: 1-5,7,8,10,13,14,21-26,29-31; 2'-F: 11,16,17,18,20,27; PS: 6; DNA: 9,28]
B24: aptamer No. 81 (mixed)
mixed: B1 mixed
modifications: 2'-OMe (M), 2'-F (F), PS (S) as marked; uppercase DNA [2'-OMe: 1-5,7,8,10,11,13,14,17,21-31; 2'-F: 18; PS: 6,15,19; DNA: 9,16,20]

Biological target: T1, IL-17 (Homo sapiens, UniProt Q16552 Q16552:24-155)
T1 sequence: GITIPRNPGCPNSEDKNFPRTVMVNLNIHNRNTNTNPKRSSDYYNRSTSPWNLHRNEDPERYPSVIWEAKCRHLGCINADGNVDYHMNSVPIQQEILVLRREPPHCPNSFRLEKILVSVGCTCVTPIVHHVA
Assay: SPR; IL-17 150 nM, aptamer 12.5 or 50 nM
Conditions: chain copies: 2
Method: Whether the synthesized aptamers inhibit the binding of IL-17 and IL-17 receptor was evaluated by the surface plasmon resonance method.
For the measurement, BIAcore T100 manufactured by GE Healthcare Bio Sciences was used. […] As an analyte, IL-17 (150 nM) and each aptamer (12.5 or 50 nM) shown by Table 3 were mixed, maintained for 15 min and after that the mixture was flown.

For B1, which binding signal is on record?
The binding signal was 27.6 % IL-17/IL-17R binding remaining.

Which binding signal does the source give for B2 here?
The binding signal was 22.6 % IL-17/IL-17R binding remaining.

How did the binding signal turn out when B3 was run?
The binding signal was 25.1 % IL-17/IL-17R binding remaining.

How did the binding signal turn out when B4 was run?
The binding signal was 27 % IL-17/IL-17R binding remaining.

Which binding signal does the source give for B5 here?
The binding signal was 33.7 % IL-17/IL-17R binding remaining.

With B6 as the binder, how does the binding signal read?
Its binding signal is 36.5 % IL-17/IL-17R binding remaining.

How did the binding signal turn out when B7 was run?
The binding signal was 31.9 % IL-17/IL-17R binding remaining.

How did the binding signal turn out when B8 was run?
The binding signal was 25.9 % IL-17/IL-17R binding remaining.

With B9 as the binder, how does the binding signal read?
The binding signal was 27.1 % IL-17/IL-17R binding remaining.

Which binding signal does the source give for B10 here?
The binding signal was 29.3 % IL-17/IL-17R binding remaining.

For B11, which binding signal is on record?
The binding signal was 20.3 % IL-17/IL-17R binding remaining.

For B12, which binding signal is on record?
Its binding signal is 28.7 % IL-17/IL-17R binding remaining.

How did the binding signal turn out when B13 was run?
The binding signal was 37 % IL-17/IL-17R binding remaining.

With B14 as the binder, how does the binding signal read?
The binding signal was 18.4 % IL-17/IL-17R binding remaining.

With B15 as the binder, how does the binding signal read?
Its binding signal is 35 % IL-17/IL-17R binding remaining.

B16 was tested. Which binding signal did it give?
The binding signal was 26.1 % IL-17/IL-17R binding remaining.

Which binding signal does the source give for B17 here?
Its binding signal is 32 % IL-17/IL-17R binding remaining.

Which binding signal does the source give for B18 here?
Its binding signal is 21.6 % IL-17/IL-17R binding remaining.

With B19 as the binder, how does the binding signal read?
Its binding signal is 24.1 % IL-17/IL-17R binding remaining.

Which binding signal does the source give for B20 here?
The binding signal was 23.9 % IL-17/IL-17R binding remaining.

B21 was tested. Which binding signal did it give?
The binding signal was 23.3 % IL-17/IL-17R binding remaining.

B22 was tested. Which binding signal did it give?
Its binding signal is 28.2 % IL-17/IL-17R binding remaining.

How did the binding signal turn out when B23 was run?
Its binding signal is 25.3 % IL-17/IL-17R binding remaining.

How did the binding signal turn out when B24 was run?
The binding signal was 34.3 % IL-17/IL-17R binding remaining.
